Measured values: patent publication EP4722228A1, “NEW COMPOUND TARGETING MUSK AND USE THEREOF” (The University of Tokyo, priority 2023, dated 2024)
Bridge positions count the residues as written; N and C are the ends. Square brackets hold non-standard residues; d marks the D form. Ends that are not written are not given here.

Molecular target: hMuSK-Fc (chimeric protein of the secretory human MuSK extracellular portion and human IgG1 Fc) (human) (UniProt O15146)
Assay: SPR (Biacore T200), Fc-tagged human MuSK on Protein G/A chip, 1:1 fit

hMuSK-Fc (chimeric protein of the secretory human MuSK extracellular portion and human IgG1 Fc) (human), sequence (O15146 24-493, change not shown, form in doubt): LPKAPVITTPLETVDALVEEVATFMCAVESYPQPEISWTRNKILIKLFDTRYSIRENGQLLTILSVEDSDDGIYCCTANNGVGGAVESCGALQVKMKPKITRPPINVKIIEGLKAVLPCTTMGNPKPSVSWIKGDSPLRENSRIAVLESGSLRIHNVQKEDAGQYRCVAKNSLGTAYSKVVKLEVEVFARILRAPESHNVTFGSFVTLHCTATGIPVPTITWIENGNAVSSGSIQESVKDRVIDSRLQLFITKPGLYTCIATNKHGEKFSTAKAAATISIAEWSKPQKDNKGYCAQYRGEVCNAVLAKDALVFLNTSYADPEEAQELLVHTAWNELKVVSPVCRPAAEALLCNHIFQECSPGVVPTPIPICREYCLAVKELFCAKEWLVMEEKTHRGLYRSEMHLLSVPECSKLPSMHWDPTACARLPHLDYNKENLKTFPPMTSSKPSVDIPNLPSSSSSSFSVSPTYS

Kd: 0.9 nM
B1: Homodimer of MuSK7 with an introduced palmitoyl group (MuSK7-pal) (peptide)
peptide: {CH2CO}-[dY]PSYHTNVVASLKRC
modifications: thioether N-15; also: homodimer: two peptides condensed via C-terminal Cys carboxyl with linking unit bearing palmitic acid
